Bridge positions count the residues as written; N and C are the ends. Ends that are not written are not given here.

bovine trypsin, sequence (P00760 24-246): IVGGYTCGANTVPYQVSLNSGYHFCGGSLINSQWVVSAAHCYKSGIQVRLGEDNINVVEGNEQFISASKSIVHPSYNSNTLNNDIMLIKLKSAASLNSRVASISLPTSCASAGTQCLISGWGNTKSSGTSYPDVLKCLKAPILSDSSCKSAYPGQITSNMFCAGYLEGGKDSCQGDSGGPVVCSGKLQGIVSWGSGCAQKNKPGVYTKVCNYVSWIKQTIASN

The target in this assay is bovine trypsin (bovine, UniProt P00760 24-246). In words: trypsin inhibition, BApNA substrate. As to the method:
The substrates N-succinyl-Ala-Ala-Pro-Phe-p-nitroaniline (AAPFpNA), Nα—Benzoyl-L-arginine-4-nitroaniline hydrochloride (BApNA) and N-succinyl-[…] (AAApNA) are used in competitive binding reaction to determine the inhibitory activities against α-chymotrypsin, bovine trypsin, and porcine pancreatic elastase, respectively. Experiments for α-chymotrypsin and bovine trypsin inhibition were measured in 20 mM CaCl₂, 50 mM Tris-HCl buffer (pH 7.8), and that for porcine elastase inhibition was measured in 50 mM Tris-HCl buffer (pH 8.0). The concentration of the peptide was measured using optical density (OD) at 280 nm. The Michaelis constant (Kₘ) of the enzyme hydrolysis substrate is calculated from the initial rate of substrate hydrolysis at 405 nm. The absorbance value of the substrate was measured at 405 nm after complete hydrolysis. All data were processed using nonlinear regression.
(1) Added a total 190 μL of reaction buffer (20 mM CaCl₂ and 50 mM Tris-HCl, pH 7.8) along with different concentrations of anti-trypsin peptides (BTs) into the pre-cooled 96-well plate, followed by preheating at 37° C., and spined down at 500 rpm for 5 min. Next added 10 μL of 1 μM trypsin, incubated at 37° C., and then spined down at 500 rpm for 10 min. Finally, added 5 μL of 50 mM BApNA, and mixed by centrifugation at 500 rpm for 1 min. […] The experiment was performed in triplicate. The blank control only contained the reaction buffer and the substrate as the minimum absorption value (Min OD_{405 nm}). The negative control only contained the reaction buffer, the enzyme and the substrate as the maximum absorption value (Max OD_{405 nm}). […] (2) In the reaction system of 205 μL, the final concentrations of trypsin and BApNA were 50 nM and 1.22 mM, respectively. [0456] (3) Data statistics
Regarding CGRATKSIPPICFPD (disulfide 1-12 (inferred)) [BT5], the IC50 – broadly, the concentration at which inhibition is half-maximal – was 160 nM and the Ki (usually a measure of affinity in units of concentration, obtained from inhibition or displacement) amounted to 30 nM.
The like results for CGAATKSIPPICFPD (disulfide 1-12 (inferred)) [BT7] were, in that order, 230 nM and 50 nM.
Molecule CGSATKSIPPICFPD (disulfide 1-12 (inferred)) [BT6] registered an IC50 of 290 nM and a Ki of 60 nM.
The like results for CGRATKSIPPICF (disulfide 1-12 (inferred)) [BT9] were, in that order, 70 nM and 10 nM.
On the same counts, the results for CGRGTKSIPPICF (disulfide 1-12 (inferred)) [BT60] are 430 nM and 90 nM.
The like results for CLRATKSIPPICF (disulfide 1-12 (inferred)) [BT72] were, in that order, 130 nM and 30 nM.
CGRATKAIPPICF (disulfide 1-12 (inferred)) [BT27] registered an IC50 of 280 nM and a Ki of 60 nM.
In turn, CGRATRSIPPICA (disulfide 1-12 (inferred)) [BT19] displayed an IC50 of 43400 nM and a Ki of 9250 nM.
On the same counts, the results for CGTATKSIPPICN (disulfide 1-12 (inferred)) [BT24] are 33900 nM and 7220 nM.
On the same counts, the results for CGRLTKSIPPICF (disulfide 1-12 (inferred)) [BT48] are 180 nM and 40 nM.
CGRNTKSIPPICF (disulfide 1-12 (inferred)) [BT55] showed an IC50 of 300 nM and a Ki of 60 nM.
On the same counts, the results for CGRVTKSIPPICF (disulfide 1-12 (inferred)) [BT51] are 410 nM and 90 nM.
With CGRATRSIPPICF (disulfide 1-12 (inferred)) [BT17], it took 580 nM to reach half-maximal inhibition (IC50), the Ki was found to be 120 nM and the “fold decrease in inhibitory activity compared to BT9” value was around 12 fold.
In the case of CGRATRSIPPACF (disulfide 1-12 (inferred)) [BT15], the IC50 was 4490 nM and the affinity corresponds to a Ki of 960 nM.
CGTATKSIPPICF (disulfide 1-12 (inferred)) [BT25] gave a concentration for half-maximal inhibition (IC50) of 970 nM and a Ki of 210 nM.
With CGRETKSIPPICF (disulfide 1-12 (inferred)) [BT58], the IC50 was determined as 120 nM and the Ki stood at 30 nM.
CGRPTKSIPPICF (disulfide 1-12 (inferred)) [BT59] yielded an IC50 of 26300 nM and a Ki of 5590 nM.
The like results for CVRATKSIPPICF (disulfide 1-12 (inferred)) [BT71] were, in that order, 110 nM and 20 nM.
On the same counts, the results for CGRYTKSIPPICF (disulfide 1-12 (inferred)) [BT53] are 120 nM and 30 nM.
The like results for CGRQTKSIPPICF (disulfide 1-12 (inferred)) [BT54] were, in that order, 60 nM and 10 nM.
The molecule CGRHTKSIPPICF (disulfide 1-12 (inferred)) [BT56] came in with an IC50 of 110 nM and a Ki of 20 nM.
Regarding CARATKSIPPICF (disulfide 1-12 (inferred)) [BT67], the IC50 came out at 50 nM and affinity was put at a Ki of 10 nM.
In turn, CGRATRSIPPICY (disulfide 1-12 (inferred)) [BT18] displayed an IC50 of 39400 nM and a Ki of 8380 nM.
The like results for CGRATRAIPPICF (disulfide 1-12 (inferred)) [BT22] were, in that order, 4680 nM and 1000 nM.
In turn, CGRFTKSIPPICF (disulfide 1-12 (inferred)) [BT52] gave a 50% inhibitory concentration (IC50) of 130 nM and a Ki of 30 nM.
With CGRATRSAPPICF (disulfide 1-12 (inferred)) [BT21], 18100 nM corresponded to half-maximal inhibition (IC50) and the Ki was found to be 3850 nM.
The like results for CGRSTKSIPPICF (disulfide 1-12 (inferred)) [BT47] were, in that order, 50 nM and 10 nM.
CGRITKSIPPICF (disulfide 1-12 (inferred)) [BT49] had an IC50 of 500 nM and a Ki of 110 nM.
In turn, CGRATKSIPAICF (disulfide 1-12 (inferred)) [BT10] registered a 50% inhibitory concentration (IC50) of 110 nM and a Ki of 20 nM.
The like results for CGRATKSLPAICF (disulfide 1-12 (inferred)) [BT16] were, in that order, 910 nM and 190 nM.
The molecule CGRAAKSIPPICF (disulfide 1-12 (inferred)) [BT26] gave an IC50 of 2500 nM and a Ki of 530 nM.
On the same counts, the results for CGRWTKSIPPICF (disulfide 1-12 (inferred)) [BT57] are 130 nM and 30 nM.
On the same counts, the results for CPRATKSIPPICF (disulfide 1-12 (inferred)) [BT66] are 60 nM and 10 nM.
